Measurements published in paper PMC2895232.

Key:
[1] = target: wild-type ParB of Pseudomonas aeruginosa (Pseudomonas aeruginosa); experiment: cross-linking; glutaraldehyde cross-linking in vitro of purified His6-tagged ParB proteins to determine the oligomeric state; WT ParB as the control
[2] = test system: ParB1-229 (Pseudomonas aeruginosa PAO1161); experiment: EMSA; settings: not given in the material
[3] = target: ParBΔ121–183 of Pseudomonas aeruginosa (Pseudomonas aeruginosa); experiment: cross-linking; glutaraldehyde cross-linking in vitro of purified His6-tagged ParB proteins to determine the oligomeric state; WT ParB as the control

Work on “wild-type ParB of Pseudomonas aeruginosa (natural protein)” yielded a stoichiometry N [1] of 2.
parS was tested, and the binding signal (fold of WT affinity (>5-fold decreased)) [2] was less than 0.2.
“ParBΔ121–183 of Pseudomonas aeruginosa (natural protein)” showed a stoichiometry N [3] of 2.
